Reference: article PMC10823521

Biological target: H3·H4 heterodimer (human H3.3 and H4) (human) (UniProt P84243)
Assay: high-speed atomic force microscopy; purified nucleosomes, hexasomes and de novo tetrasomes on 601 DNA (200W100), 1.5-3.5 nM, on bare mica, imaged in 10-fold-diluted buffer A at 1-2 fps, room temperature; histone core volume tracked over time; DNA present

“H3·H4 heterodimer (human H3.3 and H4) (from UniProt P84243 1-136; P62805 1-103) (complex)” showed an observation time until one H3·H4 dimer was dislodged from a de novo tetrasome of 2 min.
